The values that follow come from patent publication US20200339680A1 (Alector, published 2020).

In test [1] the target is T1, human TMEM106B (human, UniProt Q9NUM4 2-274).
T1 construct: full-length, transiently expressed on HEK293 cells, or natively expressed on HeLa, U251 and A549 cells (the cell is named under assay); also the source of the Pepscan peptides; also called huTMEM106B; huTMEM
The experiment in a line: FACS A549 1 ug/ml.
Method: (§1) Purified anti-TMEM106B antibodies were evaluated for their binding affinity to various TMEM106B-expressing cell lines including HEK293 transiently transfected with human/cyno/mouse TMEM106B, as well as HeLa cells and A549 cells. Antibodies tested for this experiment were mouse IgGs purified from hybridoma supernatant. Affinity binding to cells was determined as follows. Briefly, 1×10\hat{ }5 cells were aliquoted per well in 96-well round bottom plates and incubated with 50 μL of purified anti-TMEM106B antibody at various concentrations (10× dilutions starting at 10 μg/ml) in FACS buffer (PBS+2% FBS+1 mM EDTA). […] Sorting was performed on a iQue (Intellicyt), with sort gates drawn to exclude dead (propidium iodide+) cells. Binding data was analyzed using median fluorescent intensity (MFI) and graphed in Prism. Values presented are MFI.

Test [2] deals with T1, human TMEM106B. As to the kind of experiment: FACS A549 10 ug/ml.
Method: as §1
In test [3] the target is T1, human TMEM106B. As to the kind of experiment: FACS HEK+huTMEM 10 ug/ml.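 Further: flow cytometric binding of purified mouse IgG antibodies to HEK293 cells transiently expressing human TMEM106B, read as median fluorescence intensity on live cells with propidium iodide-positive cells excluded.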
Method: as §1
Test [4] addresses T1, human TMEM106B. As to the kind of experiment: FACS HEK+huTMEM 0.1 ug/ml.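 Further: flow cytometry binding of purified mouse IgG antibodies to HEK293 cells transiently expressing TMEM106B, read as median fluorescence intensity on live cells (propidium iodide negative gating).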
Method: as §1
Test [5] addresses T1, human TMEM106B. As to the kind of experiment: FACS HEK+huTMEM 1.0 ug/ml.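 Further: binding of purified mouse IgG antibodies to HEK293 cells transiently expressing human TMEM106B, read by flow cytometry as median fluorescence intensity of live, propidium iodide-negative cells.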
Method: as §1
Test [6] has as its target T1, human TMEM106B. The experiment in a line: FACS HEK+huTMEM 0.1 ug/ml (2nd column so headed).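 Further: flow cytometry binding of purified anti-TMEM106B mouse IgG to HEK293 cells transiently transfected with TMEM106B, read as median fluorescence intensity on live (propidium iodide-negative) cells.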
Method: as §1
The target of test [7] is T1, human TMEM106B. As to the kind of experiment: FACS HeLa.
The target in test [8] is T1, human TMEM106B. The experiment in a line: FACS U251.
Method: (§2) All cells were cultured in either T75 or T150 flasks. […] The enzyme was quenched by addition of fresh media, and the cells were then distributed into 96-well plates for FACS analysis.
(§3) FACS analysis was performed as follows. Each cell type was aliquoted in 96-well round bottom plates (2×10^5 cells per well), washed once with FACS buffer (PBS+2% FBS+1 mM EDTA), and incubated with 50 μL of hybridoma supernatant or purified antibody (10 μg/ml in FACS buffer) on ice for 1 hour. […] Following this secondary incubation, the cells were again washed 2× with ice-cold FACS buffer and resuspended in a final volume of 50 μL of FACS buffer+0.25 μl/well propidium iodide (Fisher Scientific #4BDB556463). Analysis was performed on a FACSCanto system (BD Biosciences) or iQue (Intellicyt), with sort gates drawn to exclude dead (i.e., propidium iodide positive) cells.
In test [9] the target is T2, mouse TMEM106B (mouse, UniProt Q80X71 2-275).
T2 construct: transiently expressed on HEK293 cells, or native on mouse Neuro2a cells; also called moTMEM106B; murine TMEM106B
As to the kind of experiment: FACS Neuro2a.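 Further: flow cytometry of antibody binding to cells: hybridoma supernatant or purified antibody at 10 µg/ml, 1 h on ice, secondary detection, propidium iodide–positive dead cells gated out.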
Method: as §2, §3

B1: TM-39 (antibody, V domains shown)
VH: HVQRQQSGTELAKPGASVKLSCKTSGYTFTDYWMHWIKQRPGQGLEWIGFINPSSGYTKYNQNFKDKATLTADKSSSTAYMQLSSLTYEDSAVFYCAREAGSISDWYFDVWGTGTTVTVSS
VL: DIVMTQAAPSIPVTPGESVSISCRSSKTLLNSNGNTYLYWFLQRPGQPPQLLIYRMSNLASGVPDRFSGSGSGTAFTLRISRVEAEDVGVYYCMQHLDYPYTFGGGTQLEIK
As to B1, the MFI in test [1] was determined as 3610 MFI; in test [2], 5330 MFI; in test [3], 51900 MFI; in test [4], 19200 MFI; in test [5] it was 55600 MFI; in [6], 3850 MFI.

B2: TM-24 (antibody, V domains shown)
VH: QVQLKQSGPGQVQPSQSLSITCTVSGFSLSDYGVHWVRQSPGKGLEWLGVIWNNGNTDYNAAFISRLSINKDNSKSQVFFKMTSLQADDTAIYYCVRSLRPLHFDYWGQGTTVTVSS
VL: DIVMTQSPSSLTMSVGQKVTMNCKSSQSLLNSNNQQNYLAWYQQKPGQSPKLLVYFASIRESGVPDRFIGSGSGTDFTLTINSVQAEDLADYFCQQHYSTPFTFGSGTKLEIR
notes: mouse IgG (hybridoma)
Take B2: the MFI in [1] was determined as 2880 MFI; in test [2] it was 4480 MFI; in [3] it was 66300 MFI; in [4], 22000 MFI; in [5], 64500 MFI; in [6], 3620 MFI.

B3: TM-30 (antibody, V domains shown)
VH: QVQLQQSGPELVKPGASVKLSCKASDNTFTNYDVNWVRQRPGQGLEWIGWIYPRDGTTIYNEKFKGRATLTVDTSSSTAYMELHSLTSEDSAVFFCARTLPQAMDYWGQGTSVTVSS
VL: DVLMTQSPLSLPVSLGDQVSISCRSSQTIVHRNGNTYLEWYLQKPGQSPKLLIYKVSNRFSGVPDRFSGSGSGTDFTLKISRVEAEDLGVYYCFQGSHLPWTFGGGTKLEIK
notes: mouse IgG (hybridoma)
Take B3: the MFI in test [1] turned out to be 3030 MFI; in test [2], 4040 MFI; in test [3] it was 61500 MFI; in test [4], 18400 MFI; in test [5], 63500 MFI; in [6], 3070 MFI.

B4: TM-32 (antibody, V domains shown)
VH: EVQLQQSGAELVRPGASVRLSCIASGFNIKDYYMYWVKQRPEQGLEWIGRIDPEDGDTEYVPKFQGKATMTADTSSNTAYLQLSSLTSEDIGVYYCTTRTWDLYYAVDNWGQGTSVTVSS
VL: DVLMTQTPLSLPVSLGDQASISCRSSQNIVHSNGNTYLEWYLQKPGQSPKLLIDKVSNRFSGVPDRFSGSGSGTDFTLKISRVEAEDLGIYYCFQGSHVPFTFGSGTKLEIK
B4: the MFI in test [1] turned out to be 3930 MFI; in test [2], 6100 MFI; in test [3], 61100 MFI; in [4] it was 20300 MFI; in [5], 63300 MFI; in [6], 4100 MFI.

B5: TM-31 (antibody, V domains shown)
VH: QVQLQQSGAELAKPGASVKVSCKASGYTFISYWMNWVKQRPGQGLEWIGYINPTSGYTRYNQKFKDKATLTADKSSSTAYMQLSSLTYEDSAVYYCARSPPTVVLIGYFDYWGQGTTLTVSS
VL: DIKMTQSPSSMYASLGERVTFTCKASQDINSYLSWFQQKPGKSPKTLIYRGNGLVDGVPSRFSGSGSGQDYSLTISSLEYEDMGIYYCLQYDEFPFTFASGTKLEIK
notes: mouse IgG (hybridoma)
Regarding B5, the MFI in test [7] amounted to 799 MFI; in [8] it was 352 MFI; in test [9], 325 MFI; in [1] it was 403 MFI; in [2], 527 MFI; in test [3] it was 6060 MFI. Besides, the MFI in [4] was 1390 MFI; in [5], 3680 MFI; in test [6], 596 MFI.
